Experimental data reported in IntAct's records for PubMed 28712572.

Biological target: gbrap_human GABARAP (UniProt O95166)
Sequence (O95166 whole entry): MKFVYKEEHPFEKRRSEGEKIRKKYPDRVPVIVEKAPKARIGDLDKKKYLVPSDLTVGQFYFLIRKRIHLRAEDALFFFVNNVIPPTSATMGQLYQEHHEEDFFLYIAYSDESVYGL

Substance	effect of a mutation on the interaction
Pericentriolar material 1 protein (Homo sapiens), Q15154 G1952F	with no effect
Pericentriolar material 1 protein (Homo sapiens), Q15154 G1952H	with no effect
Pericentriolar material 1 protein (Homo sapiens), Q15154 G1952K	with no effect
Pericentriolar material 1 protein (Homo sapiens), Q15154 G1952L	with no effect
Pericentriolar material 1 protein (Homo sapiens), Q15154 G1952P	with no effect
Pericentriolar material 1 protein (Homo sapiens), Q15154 G1952S	with no effect
Pericentriolar material 1 protein (Homo sapiens), Q15154 G1952V	with no effect
Pericentriolar material 1 protein (Homo sapiens), Q15154 G1952W	with no effect
Pericentriolar material 1 protein (Homo sapiens), Q15154 G1952Y	with no effect
Pericentriolar material 1 protein (Homo sapiens), Q15154 I1954A	with no effect
Pericentriolar material 1 protein (Homo sapiens), Q15154 I1954C	with no effect
Pericentriolar material 1 protein (Homo sapiens), Q15154 I1954D	with no effect
Pericentriolar material 1 protein (Homo sapiens), Q15154 I1954F	with no effect
Pericentriolar material 1 protein (Homo sapiens), Q15154 I1954H	with no effect
Pericentriolar material 1 protein (Homo sapiens), Q15154 I1954K	with no effect
Pericentriolar material 1 protein (Homo sapiens), Q15154 I1954L	with no effect
Pericentriolar material 1 protein (Homo sapiens), Q15154 I1954N	with no effect
Pericentriolar material 1 protein (Homo sapiens), Q15154 I1954P	with no effect
Pericentriolar material 1 protein (Homo sapiens), Q15154 I1954R	with no effect
Pericentriolar material 1 protein (Homo sapiens), Q15154 I1954S	with no effect
Pericentriolar material 1 protein (Homo sapiens), Q15154 I1954T	with no effect
Pericentriolar material 1 protein (Homo sapiens), Q15154 I1954Y	with no effect
Pericentriolar material 1 protein (Homo sapiens), Q15154 I1975A	with no effect
Pericentriolar material 1 protein (Homo sapiens), Q15154 I1975C	with no effect

Substance	effect of a mutation on the interaction
Pericentriolar material 1 protein (Homo sapiens), Q15154 I1975D	with no effect
Pericentriolar material 1 protein (Homo sapiens), Q15154 I1975E	with no effect
Pericentriolar material 1 protein (Homo sapiens), Q15154 I1975F	with no effect
Pericentriolar material 1 protein (Homo sapiens), Q15154 I1975H	with no effect
Pericentriolar material 1 protein (Homo sapiens), Q15154 I1975K	with no effect
Pericentriolar material 1 protein (Homo sapiens), Q15154 I1975M	with no effect
Pericentriolar material 1 protein (Homo sapiens), Q15154 I1975N	with no effect
Pericentriolar material 1 protein (Homo sapiens), Q15154 I1975P	with no effect
Pericentriolar material 1 protein (Homo sapiens), Q15154 I1975Q	with no effect
Pericentriolar material 1 protein (Homo sapiens), Q15154 I1975R	with no effect
Pericentriolar material 1 protein (Homo sapiens), Q15154 I1975S	with no effect
Pericentriolar material 1 protein (Homo sapiens), Q15154 I1975W	with no effect
Pericentriolar material 1 protein (Homo sapiens), Q15154 I1975Y	with no effect
Pericentriolar material 1 protein (Homo sapiens), Q15154 K1957A	with no effect
Pericentriolar material 1 protein (Homo sapiens), Q15154 K1957C	with no effect
Pericentriolar material 1 protein (Homo sapiens), Q15154 K1957F	with no effect
Pericentriolar material 1 protein (Homo sapiens), Q15154 K1957G	with no effect
Pericentriolar material 1 protein (Homo sapiens), Q15154 K1957H	with no effect
Pericentriolar material 1 protein (Homo sapiens), Q15154 K1957I	with no effect
Pericentriolar material 1 protein (Homo sapiens), Q15154 K1957L	with no effect
Pericentriolar material 1 protein (Homo sapiens), Q15154 K1957N	with no effect
Pericentriolar material 1 protein (Homo sapiens), Q15154 K1957P	with no effect
Pericentriolar material 1 protein (Homo sapiens), Q15154 K1957T	with no effect

Second part, the substance after the results:

effect of a mutation on the interaction	Substance
with no effect	Pericentriolar material 1 protein (Homo sapiens), Q15154 G1952I
with no effect	Pericentriolar material 1 protein (Homo sapiens), Q15154 G1952M
with no effect	Pericentriolar material 1 protein (Homo sapiens), Q15154 G1952N
with no effect	Pericentriolar material 1 protein (Homo sapiens), Q15154 G1952Q
with no effect	Pericentriolar material 1 protein (Homo sapiens), Q15154 G1952R
with no effect	Pericentriolar material 1 protein (Homo sapiens), Q15154 G1952T
with no effect	Pericentriolar material 1 protein (Homo sapiens), Q15154 I1954E
with no effect	Pericentriolar material 1 protein (Homo sapiens), Q15154 I1954G
with no effect	Pericentriolar material 1 protein (Homo sapiens), Q15154 I1954M
with no effect	Pericentriolar material 1 protein (Homo sapiens), Q15154 I1954Q
decreasing interaction strength	Pericentriolar material 1 protein (Homo sapiens), Q15154 I1954V
with no effect	Pericentriolar material 1 protein (Homo sapiens), Q15154 I1954W
with no effect	Pericentriolar material 1 protein (Homo sapiens), Q15154 I1975G
with no effect	Pericentriolar material 1 protein (Homo sapiens), Q15154 I1975L
with no effect	Pericentriolar material 1 protein (Homo sapiens), Q15154 I1975T
with no effect	Pericentriolar material 1 protein (Homo sapiens), Q15154 I1975V
with no effect	Pericentriolar material 1 protein (Homo sapiens), Q15154 K1957D
with no effect	Pericentriolar material 1 protein (Homo sapiens), Q15154 K1957E
with no effect	Pericentriolar material 1 protein (Homo sapiens), Q15154 K1957M
with no effect	Pericentriolar material 1 protein (Homo sapiens), Q15154 K1957Q
with no effect	Pericentriolar material 1 protein (Homo sapiens), Q15154 K1957R
with no effect	Pericentriolar material 1 protein (Homo sapiens), Q15154 K1957S
with no effect	Pericentriolar material 1 protein (Homo sapiens), Q15154 K1957V
with no effect	Pericentriolar material 1 protein (Homo sapiens), Q15154 K1957W
